The values that follow are results of earlier work, collected in paper PMC3076733.

One may read the Kd as the concentration at which binding is half-saturated.

In this series the target is Obscurin Rho-GEF (Homo sapiens) (UniProt Q5VST9).
UniProt Q5VST9, sequence (Q5VST9 5700-5884): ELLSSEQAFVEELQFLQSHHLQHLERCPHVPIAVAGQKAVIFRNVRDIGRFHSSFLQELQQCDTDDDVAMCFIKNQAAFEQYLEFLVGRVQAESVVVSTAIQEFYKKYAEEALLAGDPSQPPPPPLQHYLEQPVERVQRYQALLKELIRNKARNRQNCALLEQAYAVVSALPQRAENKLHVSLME

Regarding RanBP9 (from UniProt Q96S59), the Kd was 2 µM.
